Key:
[1] = target: C3b (complement component 3b) (UniProt P01024); test: cell-based or functional assay
[2] = target: C3b (complement component 3b) (UniProt P01024); test: rank of binding affinity among six proteins, plate-based binding assays
[3] = target: C3b (complement component 3b) (UniProt P01024); test: plate-based binding assay, His-tagged recombinant protein from HEK293 cells
[4] = target: C3b (complement component 3b) (UniProt P01024); test: relative C3b-binding assay, detection antibody AbCam OX-24 (#Ab112197)
[5] = target: C3b (complement component 3b) (UniProt P01024); test: relative C3b-binding assay, percent of CFH-Risk, detection antibody AbCam OX-24 (#Ab112197)

protective CFHT-I62-Y402 (truncated complement factor H ending in SFTL), sequence (P08603 other isoform, or with tags, fused parts or gaps): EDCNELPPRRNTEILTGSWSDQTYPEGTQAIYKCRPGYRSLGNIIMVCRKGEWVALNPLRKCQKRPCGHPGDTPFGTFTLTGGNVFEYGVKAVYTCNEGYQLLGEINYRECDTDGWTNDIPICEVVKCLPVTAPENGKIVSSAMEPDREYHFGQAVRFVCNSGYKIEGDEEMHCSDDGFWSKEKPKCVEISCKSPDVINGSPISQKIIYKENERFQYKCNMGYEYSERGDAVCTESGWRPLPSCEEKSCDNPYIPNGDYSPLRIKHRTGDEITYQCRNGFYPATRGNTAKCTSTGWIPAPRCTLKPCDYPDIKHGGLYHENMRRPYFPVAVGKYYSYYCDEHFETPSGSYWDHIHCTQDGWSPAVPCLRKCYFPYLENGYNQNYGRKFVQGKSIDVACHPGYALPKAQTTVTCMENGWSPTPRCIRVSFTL
protective CFH-I62-Y402-E936 (full-length complement factor H), sequence (P08603 19-1231 V62I): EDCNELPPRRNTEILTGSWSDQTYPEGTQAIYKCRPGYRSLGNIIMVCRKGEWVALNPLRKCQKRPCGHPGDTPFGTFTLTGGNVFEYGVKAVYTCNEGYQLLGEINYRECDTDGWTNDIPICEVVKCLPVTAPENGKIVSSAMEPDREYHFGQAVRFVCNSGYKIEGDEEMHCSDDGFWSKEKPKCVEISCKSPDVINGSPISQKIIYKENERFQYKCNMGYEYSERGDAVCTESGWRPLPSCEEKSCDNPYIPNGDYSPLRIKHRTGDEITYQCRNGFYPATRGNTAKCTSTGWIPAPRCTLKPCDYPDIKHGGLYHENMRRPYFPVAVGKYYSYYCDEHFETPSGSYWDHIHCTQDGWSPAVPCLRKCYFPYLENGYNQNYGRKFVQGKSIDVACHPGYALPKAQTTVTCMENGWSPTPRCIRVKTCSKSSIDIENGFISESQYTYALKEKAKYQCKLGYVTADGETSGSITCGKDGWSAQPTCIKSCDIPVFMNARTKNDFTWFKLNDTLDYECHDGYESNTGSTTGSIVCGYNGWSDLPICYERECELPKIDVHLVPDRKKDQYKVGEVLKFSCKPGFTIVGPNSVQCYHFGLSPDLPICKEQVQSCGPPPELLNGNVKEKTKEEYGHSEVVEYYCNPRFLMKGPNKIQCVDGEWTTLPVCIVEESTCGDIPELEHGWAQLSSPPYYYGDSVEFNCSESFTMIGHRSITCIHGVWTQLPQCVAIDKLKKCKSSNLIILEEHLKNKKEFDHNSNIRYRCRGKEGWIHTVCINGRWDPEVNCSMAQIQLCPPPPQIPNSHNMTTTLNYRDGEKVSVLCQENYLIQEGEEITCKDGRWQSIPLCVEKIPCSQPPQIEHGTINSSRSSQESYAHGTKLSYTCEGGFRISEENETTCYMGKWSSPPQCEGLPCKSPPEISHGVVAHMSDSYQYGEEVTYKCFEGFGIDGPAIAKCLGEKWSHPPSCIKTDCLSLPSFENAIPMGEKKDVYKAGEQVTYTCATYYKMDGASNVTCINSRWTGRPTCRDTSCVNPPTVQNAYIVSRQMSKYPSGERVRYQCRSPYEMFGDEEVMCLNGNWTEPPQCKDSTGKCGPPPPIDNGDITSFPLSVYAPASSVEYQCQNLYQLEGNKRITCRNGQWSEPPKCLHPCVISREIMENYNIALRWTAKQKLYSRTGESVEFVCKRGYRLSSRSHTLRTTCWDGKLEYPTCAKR
CFH-Del (CFH of the CFHR3/1 deletion haplotype, V62-Y402-E936), sequence (P08603 19-1231, stated change not applied): as the sequence (P08603 19-1231 V62I) above, with I44V counted along it
CFHT-Neu/Del (truncated CFH of the neutral and deletion haplotypes, V62-Y402), sequence (P08603 other isoform, or with tags, fused parts or gaps): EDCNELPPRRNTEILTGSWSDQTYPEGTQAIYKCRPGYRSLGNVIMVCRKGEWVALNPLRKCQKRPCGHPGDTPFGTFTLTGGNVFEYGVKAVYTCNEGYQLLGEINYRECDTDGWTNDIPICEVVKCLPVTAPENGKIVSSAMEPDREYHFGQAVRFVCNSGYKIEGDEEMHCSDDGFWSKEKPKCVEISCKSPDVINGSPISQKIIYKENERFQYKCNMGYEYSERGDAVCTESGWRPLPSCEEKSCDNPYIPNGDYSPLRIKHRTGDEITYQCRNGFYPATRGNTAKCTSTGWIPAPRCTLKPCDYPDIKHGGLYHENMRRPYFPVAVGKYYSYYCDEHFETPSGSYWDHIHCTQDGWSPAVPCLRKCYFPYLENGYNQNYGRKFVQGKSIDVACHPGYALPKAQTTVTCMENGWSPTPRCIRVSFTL

Row | Substance | Cofactor (IC50 value for iC3b 43-kDa band appearance) [1] [nM] | Binding Affinity Rank (1 best to 6 worst) [2] [rank] | Kd [3] [nM] | Binding Potential [4] | % FH-Risk [5] [%]
1 | eCFHT-SE (engineered truncated CFH, I62-Y402, ending in SESFTL) (from UniProt P08603 19-445) | 89.7 | 6 | 938 |  | 
2 | CFH-V62-H402-E936 (risk variant of full-length CFH) (from UniProt P08603 19-1231) |  | 2 |  | 22 | 100
3 | protective CFH-I62-Y402-E936 (full-length complement factor H) (from UniProt P08603 19-1231) | 9.2 | 1 | 141 | 29 | 133
4 | CFH-Del (CFH of the CFHR3/1 deletion haplotype, V62-Y402-E936) (from UniProt P08603 19-1231) |  |  |  | 24 | 107
5 | CFH-Neu (neutral variant of full-length CFH, V62-Y402-D936) (from UniProt P08603 19-1231) |  |  |  | 29 | 134
6 | protective CFHT-I62-Y402 (truncated complement factor H ending in SFTL) (from UniProt P08603 19-445) | 31.2 | 4 | 717 | 4 | 17
7 | eCFHT-SK (engineered truncated CFH, I62-Y402, ending in SKSFTL) (from UniProt P08603 19-445) | 37 | 3 | 478 |  | 
8 | CFHT-Neu/Del (truncated CFH of the neutral and deletion haplotypes, V62-Y402) (from UniProt P08603 19-445) |  |  |  | 3 | 15
9 | CFHT-V62-H402 (risk variant of truncated CFH) (from UniProt P08603 19-445) |  | 5 |  | 2 | 10
